Where two headings read alike, the source gives them in different places.
Key:
human NTS1 = human NTS1 (Homo sapiens, UniProt P30989); test: Competitive radioligand binding assay, NTS1; conditions: Ki (NTS1, nM), membranes of CHO cells stably expressing human NTS1; mean ± SEM, 4-8 experiments
Experimental: Receptor binding data were performed as described previously. […] NTS2 binding was conducted using homogenates of membranes from HEK 293 cells transiently transfected with pcDNA3.1 carrying the human NTS2 gene (Missouri S&T cDNA Resource Center (UMR), Rolla, MO, USA) using the Mirus TransIT-293 transfection reagent (MoBiTec, Göttingen, Germany) according to the manufacturer’s protocol.
Data analysis of the competition binding curves from the radioligand displacement experiments was done by non-linear regression analysis when applying the algorithms of the PRISM 6.0 software package (GraphPad Software, San Diego, CA, USA). EC50 values were derived from each dose-response curve and were subsequently transformed into the corresponding Ki values by applying the equation of Cheng and Prusoff. Mean Ki values and the corresponding S.E.M. values (standard error of the mean) were determined by analyzing four to eight individual experiments.

[1] = Biodistribution in HT29 tumor-bearing nude mice; format: in vivo, mouse; conditions: mouse; for tissue uptake at 1.5 h / tissue uptake at 1 h: in vivo
Experimental: (§1) For in vivo evaluation of [^68Ga]Ga-TRAP(NT4)3 the NTS1-positive human colorectal adenocarcinoma cells HT29 were injected in nude mice to generate a subcutaneous tumor. The radioligand was injected in the tail vein of the mice and the biodistribution was determined 60 and 90 min after tracer injection. […] The clearance rate of [^68Ga]Ga-TRAP(NT4)3 in these excretion organs was apparently low. […] (1.44 %ID/g). Blocking experiments were performed to confirm the specificity of the tumor uptake of [^68Ga]Ga-TRAP(NT4)3 in vivo. Therefore, TRAP(NT4)3 (20 nmol) or NT4 (100 nmol) were co-injected together with the radiotracer to define the nonspecific uptake of the tracer in the tumor region. […] Apart from the intestine, the uptake in all other organs was not affected by the blocking substances (Table 2), confirming the receptor-mediated uptake of [^68Ga]Ga-TRAP(NT4)3, as it was reported that NTS receptors are expressed in the small intestine of mice.
(§2) All animal experiments were performed in compliance with the protocols approved by the local Animal Protection Authorities (Regierung Mittelfranken, Germany, no. 54-2532.1-15/08). Female athymic NMRI nude mice (nu/nu) were obtained from Harlan Winkelmann GmbH (Borchen, Germany) at four weeks of age and were kept under standard conditions (12 h light/dark) with food and water available ad libitum for at least five weeks. HT29 tumors were generated as described before.
(§3) HT29 xenografted nude mice were injected with [^68Ga]Ga-TRAP(NT4)3 into a tail vein (2.5–7.5 MBq/mouse). The animals were killed by cervical dislocation 60 or 90 min p.i. The tumors, other tissues (lung, liver, kidneys, heart, spleen, brain, muscle, femur, and intestine) and blood were removed and weighed. Radioactivity of the samples was measured using a γ-counter and expressed as the percentage of injected dose per gram of tissue (%ID/g), from which tumor-to-blood ratios were calculated. Blocking experiments were carried out by co-injecting randomly chosen mice with TRAP(NT4)3 (20 nmol/mouse) or NT4 (100 nmol/mouse) together with the radiotracer. These mice were killed by cervical dislocation at 60 min p.i., and organs and tissue were removed, weighed, and counted as described above.

[2] = system: HT29 xenografted nude mice; test: Biodistribution in HT29 tumor-bearing nude mice; format: in vivo, mouse
Experimental: as §1, §2, §3

[3] = format: in vivo; conditions: mouse blood sample taken 5 min after injection, HPLC
Experimental: The in vivo stability of [^68Ga]Ga-TRAP(NT4)3 was measured from a blood sample taken 5 min after injection in mice. […] Unfortunately, it was not possible to determine the stability at later time points due to the low amount of residual radioactivity in the blood.

[4] = Small animal PET imaging of HT29 tumor-bearing mice; conditions: mouse, in vivo, molar radioactivities of more than 20 MBq/nmol, read-out: highest tumor uptake values by PET
Experimental: The highest tumor uptake values of approximately 2 %ID/g were determined with molar radioactivities of more than 20 MBq/nmol. […] Considering all eight mice, which were repeatedly measured by PET with varying molar radioactivities of [^68Ga]Ga-TRAP(NT4)3, a good correlation of molar radioactivity and tumor uptake could be observed (Figure 4b; r = 0.713, Spearman correlation, p < 0.0004).
PET scans and image analysis were performed using a small-animal PET scanner (Inveon, Siemens Medical Solutions, Erlangen, Germany). About 1.5–4 MBq of [^68Ga]Ga-TRAP(NT4)3 with varying amounts of 0.02–10 nmol TRAP(NT4)3 were intravenously injected into the mice under isoflurane anesthesia (4%). Animals were subjected to a 60 min dynamic scan starting with tracer injection. After iterative maximum a posteriori image reconstruction of the decay- and attenuation-corrected images, regions of interest (ROIs) were drawn over the tumor. The radioactivity concentration within the tumor region was obtained from the mean value within the multiple ROIs and then converted to SUV relative to the injected dose and the individual body weight.

human NTS1, sequence (P30989 whole entry): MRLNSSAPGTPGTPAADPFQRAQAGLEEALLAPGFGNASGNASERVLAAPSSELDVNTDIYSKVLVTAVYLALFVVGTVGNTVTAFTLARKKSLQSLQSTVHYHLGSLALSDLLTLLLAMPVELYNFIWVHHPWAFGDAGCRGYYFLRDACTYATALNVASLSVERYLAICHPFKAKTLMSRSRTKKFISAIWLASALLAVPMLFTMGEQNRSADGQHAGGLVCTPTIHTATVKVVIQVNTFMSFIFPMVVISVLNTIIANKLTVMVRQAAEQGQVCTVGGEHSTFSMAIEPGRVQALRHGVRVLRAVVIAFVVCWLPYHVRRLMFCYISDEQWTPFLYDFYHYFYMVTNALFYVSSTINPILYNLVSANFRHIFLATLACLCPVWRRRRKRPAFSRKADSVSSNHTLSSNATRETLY

SMILES: CC(C)C[C@H](NC(=O)[C@@H](NC(=O)[C@H](Cc1ccc(O)cc1)NC(=O)[C@@H]1CCCN1C(=O)[C@H](CCCCN)NC(=O)CN(CCCCN)C(=O)[C@@H](N)CCCCn1cc(CNC(=O)CCP(=O)(O)CN2CCN(CP(=O)(O)CCC(=O)NCc3cn(CCCC[C@H](N)C(=O)N(CCCCN)CC(=O)N[C@@H](CCCCN)C(=O)N4CCC[C@H]4C(=O)N[C@@H](Cc4ccc(O)cc4)C(=O)N[C@H](C(=O)N[C@@H](CC(C)C)C(=O)O)C(C)(C)C)nn3)CCN(CP(=O)(O)CCC(=O)NCc3cn(CCCC[C@H](N)C(=O)N(CCCCN)CC(=O)N[C@@H](CCCCN)C(=O)N4CCC[C@H]4C(=O)N[C@@H](Cc4ccc(O)cc4)C(=O)N[C@H](C(=O)N[C@@H](CC(C)C)C(=O)O)C(C)(C)C)nn3)CC2)nn1)C(C)(C)C)C(=O)O (single isomer, unassigned) [[^68Ga]Ga-TRAP(NT4)3, metal not drawn]
- Ki (human NTS1): 0.1 nM
- tissue to tissue ratio at 1 h ([1]; female, athymic NMRI nude (nu/nu), HT29 tumor / blood, iv, total radioactivity, 60 min p.i.): 13
- tissue to tissue ratio at 1.5 h ([1]; female, athymic NMRI nude (nu/nu), HT29 tumor / blood, iv, total radioactivity, 90 min p.i.): 36
- SUV at 1 h ([1]; female, athymic NMRI nude (nu/nu), HT29 tumor, iv, total radioactivity, 60 min p.i., equals 1.7 %ID/g): ~0.7 SUV
- tissue uptake at 1.5 h ([1]; 60 and 90 min p.i., read-out: uptake in the liver): 11 to 12 %ID/g
- tissue uptake at 1.5 h ([1]; 60 and 90 min p.i., read-out: uptake values in the kidneys): 55 to 102 %ID/g
- tissue uptake at 1 h ([1]; 60 min p.i., blocking: co-injection of NT4 (100 nmol per mouse), read-out: HT29 tumor uptake): 0.6 ± 0.13 %ID/g
- tissue uptake at 1 h ([1]; 60 min p.i., blocking: co-injection of NT4 (100 nmol per mouse), read-out: blood uptake): 0.4 ± 0.01 %ID/g
- tissue uptake at 1 h ([1]; 60 min p.i., blocking: co-injection of NT4 (100 nmol per mouse), read-out: brain uptake): 0.07 ± 0.02 %ID/g
- tissue uptake at 1 h ([1]; 60 min p.i., blocking: co-injection of NT4 (100 nmol per mouse), read-out: femur uptake): 1.72 ± 0.12 %ID/g
- tissue uptake at 1 h ([1]; 60 min p.i., blocking: co-injection of NT4 (100 nmol per mouse), read-out: heart uptake): 0.45 ± 0.13 %ID/g
- tissue uptake at 1 h ([1]; 60 min p.i., blocking: co-injection of NT4 (100 nmol per mouse), read-out: intestine uptake): 0.49 ± 0.07 %ID/g
- tissue uptake at 1 h ([1]; 60 min p.i., blocking: co-injection of NT4 (100 nmol per mouse), read-out: kidney uptake): 99.9 ± 15.5 %ID/g
- tissue uptake at 1 h ([1]; 60 min p.i., blocking: co-injection of NT4 (100 nmol per mouse), read-out: liver uptake): 11.2 ± 2.27 %ID/g
- tissue uptake at 1 h ([1]; 60 min p.i., blocking: co-injection of NT4 (100 nmol per mouse), read-out: lung uptake): 6.06 ± 1.19 %ID/g
- tissue uptake at 1 h ([1]; 60 min p.i., blocking: co-injection of NT4 (100 nmol per mouse), read-out: muscle uptake): 0.16 ± 0.03 %ID/g
- tissue uptake at 1 h ([1]; 60 min p.i., blocking: co-injection of NT4 (100 nmol per mouse), read-out: spleen uptake): 3.75 ± 0.81 %ID/g
- tissue uptake at 1 h ([1]; 60 min p.i., blocking: co-injection of TRAP(NT4)3 (20 nmol per mouse), read-out: HT29 tumor uptake): 1.1 ± 0.2 %ID/g
- tissue uptake at 1 h ([1]; 60 min p.i., blocking: co-injection of TRAP(NT4)3 (20 nmol per mouse), read-out: blood uptake): 0.07 ± 0.01 %ID/g
- tissue uptake at 1 h ([1]; 60 min p.i., blocking: co-injection of TRAP(NT4)3 (20 nmol per mouse), read-out: brain uptake): 0.06 ± 0.07 %ID/g
- tissue uptake at 1 h ([1]; 60 min p.i., blocking: co-injection of TRAP(NT4)3 (20 nmol per mouse), read-out: femur uptake): 0.74 ± 0.14 %ID/g
- tissue uptake at 1 h ([1]; 60 min p.i., blocking: co-injection of TRAP(NT4)3 (20 nmol per mouse), read-out: heart uptake): 0.15 ± 0.11 %ID/g
- tissue uptake at 1 h ([1]; 60 min p.i., blocking: co-injection of TRAP(NT4)3 (20 nmol per mouse), read-out: intestine uptake): 0.49 ± 0.08 %ID/g
- tissue uptake at 1 h ([1]; 60 min p.i., blocking: co-injection of TRAP(NT4)3 (20 nmol per mouse), read-out: kidney uptake): 96.3 ± 8.83 %ID/g
- tissue uptake at 1 h ([1]; 60 min p.i., blocking: co-injection of TRAP(NT4)3 (20 nmol per mouse), read-out: liver uptake): 8.3 ± 0.87 %ID/g
- tissue uptake at 1 h ([1]; 60 min p.i., blocking: co-injection of TRAP(NT4)3 (20 nmol per mouse), read-out: lung uptake): 1.61 ± 0.42 %ID/g
- tissue uptake at 1 h ([1]; 60 min p.i., blocking: co-injection of TRAP(NT4)3 (20 nmol per mouse), read-out: muscle uptake): 0.1 ± 0.05 %ID/g
- tissue uptake at 1 h ([1]; 60 min p.i., blocking: co-injection of TRAP(NT4)3 (20 nmol per mouse), read-out: spleen uptake): 2.2 ± 0.39 %ID/g
- tissue uptake at 1 h ([1]; 60 min p.i., read-out: HT29 tumor uptake): 1.7 %ID/g
- tissue uptake at 1 h ([1]; 60 min p.i., read-out: blood uptake): 0.13 ± 0.02 %ID/g
- tissue uptake at 1 h ([1]; 60 min p.i., read-out: brain uptake): 0.04 ± 0.01 %ID/g
- tissue uptake at 1 h ([1]; 60 min p.i., read-out: femur uptake): 1.51 ± 0.12 %ID/g
- tissue uptake at 1 h ([1]; 60 min p.i., read-out: heart uptake): 0.13 ± 0.02 %ID/g
- tissue uptake at 1 h ([1]; 60 min p.i., read-out: intestine uptake): 1.5 ± 0.42 %ID/g
- tissue uptake at 1 h ([1]; 60 min p.i., read-out: kidney uptake): 94.5 ± 10.8 %ID/g
- tissue uptake at 1 h ([1]; 60 min p.i., read-out: liver uptake): 11.2 ± 0.3 %ID/g
- tissue uptake at 1 h ([1]; 60 min p.i., read-out: lung uptake): 2.76 ± 0.53 %ID/g
- tissue uptake at 1 h ([1]; 60 min p.i., read-out: muscle uptake): 0.09 ± 0.03 %ID/g
- tissue uptake at 1 h ([1]; 60 min p.i., read-out: spleen uptake): 3.72 ± 0.09 %ID/g
- tissue uptake at 1.5 h ([1]; 90 min p.i., read-out: HT29 tumor uptake): 1.44 ± 0.13 %ID/g
- tissue uptake at 1.5 h ([1]; 90 min p.i., read-out: blood uptake): 0.04 ± 0.02 %ID/g
- tissue uptake at 1.5 h ([1]; 90 min p.i., read-out: brain uptake): 0.02 ± 0.01 %ID/g
- tissue uptake at 1.5 h ([1]; 90 min p.i., read-out: femur uptake): 1.17 ± 0.21 %ID/g
- tissue uptake at 1.5 h ([1]; 90 min p.i., read-out: heart uptake): 0.35 ± 0.37 %ID/g
- tissue uptake at 1.5 h ([1]; 90 min p.i., read-out: intestine uptake): 1.31 ± 0.2 %ID/g
- tissue uptake at 1.5 h ([1]; 90 min p.i., read-out: kidney uptake): 102 ± 29.9 %ID/g
- tissue uptake at 1.5 h ([1]; 90 min p.i., read-out: liver uptake): 11.7 ± 0.48 %ID/g
- tissue uptake at 1.5 h ([1]; 90 min p.i., read-out: lung uptake): 2.37 ± 0.21 %ID/g
- tissue uptake at 1.5 h ([1]; 90 min p.i., read-out: muscle uptake): 0.11 ± 0.08 %ID/g
- tissue uptake at 1.5 h ([1]; 90 min p.i., read-out: spleen uptake): 3.45 ± 0.38 %ID/g
- HT29 tumor uptake ([2]; 60 min p.i.): 1.74 ± 0.21 %ID/g
- tumor uptake compared to monomeric analogs ([2]; HT29 tumor): two-fold
- formation of a more hydrophilic radiometabolite [3]: 8%
- tissue uptake [4]: ~2 %ID/g

From paper PMC5374433, “Theranostic Value of Multimers: Lessons Learned from Trimerization of Neurotensin Receptor Ligands and Other Targeting Vectors” (Pharmaceuticals, 2017)
